Experimental data taken from PMC7603069, “Crucial Role of the C-Terminal Domain of Hfq Protein in Genomic Instability”.

T1: Hfq-CTR peptide (Escherichia coli, UniProt P0A6X3)
T1 chain: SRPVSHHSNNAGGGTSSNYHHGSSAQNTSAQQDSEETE


Key:
Hfq-CTR peptide [1] = target: T1, Hfq-CTR peptide; assay: EMSA?; method not stated for dG7; EMSA: quadruplex prepared in water (95 C 5 min, slow cooling), 20 min at room temperature; native 4-20% polyacrylamide gel in TAE pH 8.0 (40 mM Tris-acetate, 1); conditions: parallel G-quadruplex
Hfq-CTR peptide [2] = target: T1, Hfq-CTR peptide; assay: EMSA; quadruplex annealed in water without salt; EMSA: quadruplex prepared in water (95 C 5 min, slow cooling), 20 min at room temperature; native 4-20% polyacrylamide gel in TAE pH 8.0 (40 mM Tris-acetate, 1); conditions: parallel G-quadruplex

| Binder | Kd (Hfq-CTR peptide [1]) [nM] | Kd (Hfq-CTR peptide [2]) [nM] |
| --- | --- | --- |
| GGGGGGG (structured_DNA) [dG7] | 981 ± 96 | – |
| GGGTGGGTGGGTGGGT (structured_DNA) [d(G3T)4] | – | 1060 ± 74 |
